{
  "source": "paper PMC3623637",
  "key": {"purified protein [1]": {"substrate": "Cc1cc(=O)oc2cc(NC(=O)[C@@H](N)CC(=O)O)ccc12", "assay": "purified protein", "conditions": "50 mM Tris-HCl pH 7.5, 37°C"}, "purified protein [2]": {"substrate": "Cc1cc(=O)oc2cc(NC(=O)[C@@H](N)CCC(=O)O)ccc12", "assay": "purified protein", "conditions": "50 mM Tris-HCl pH 7.5, 37°C"}},
  "data": [
    {"protein": "DNPP-1 (Caenorhabditis elegans) (protein) MAAALKPSAPEIRKAAQEFINYLNKAVTPFHATQEVKDRLLQAGFTELPESGHWDIQPTSKYFVTKNRSAILAFAVGGSYKPGSGFSIVVGHTDSPCLRVKPISHQKSDKFLQVGVSTYGGGIWRTWFDRDLSVAGLVIVKNGEKLQHKLIDVKKPVLFIPNLAIHLETDRTTFKPNTETELRPILETFAAAGINAPQKPESTGFADPRNITNNHHPQFLGLIAKEAGCQPEDIVDLDLYLYDTNKAAIVGMEDEFISGARLDNQVGTYTAISGLLESLTGESFKNDPQIRIAACFDNEEVGSDSAMGASSSFTEFVLRRLSAGGSTTAFEEAIGKSMLISADQAHATHPNYSAKHEENHRPAFHGGVVVKVNVNQRYATTSTTHAALKQVAFEAQVPLQVVVVRNDSPCGSTVGPILATKLGLQTVDVGCPQLAMHSIREFADTSSIYQATTLYSTFYERLSTVLSNMQ", "values": [
      {"measurement": "Km", "setting": "purified protein [1]", "value": "13.58 10^-3 mM"},
      {"measurement": "kcat/Km", "setting": "purified protein [1]", "value": 10300, "unit": "M⁻¹ s⁻¹"},
      {"measurement": "kcat/Km", "setting": "purified protein [2]", "value": 15300, "unit": "M⁻¹ s⁻¹"}
    ]}
  ]
}
